In the RNAGym collection of RNA variant scans (doi:10.1073/pnas.2313332121):

B1: TPR t1 (parent)
chain: GACCAAUCUGCCCUCAGAGCUCGAGAACAUCUUCGGAUGCAGAGGAGGCAGGCUUCGGUGGCGCGAUAGCGCCAACGUCCUCAACCUCCAAUGCAUCCCACCACAUGAUGAUGCCUGAAGAGCCUUGGUUUUUUG

Variants of: B1
Experiment: polymerase ribozyme fitness, log enrichment relative to wild type (log ratio); higher = more active; in vitro selection for triplet polymerase activity
Procedure, shortened: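 For each subunit of a heterodimeric triplet polymerase ribozyme, a mutant library was built by PCR and transcribed, then taken through a single in vitro selection round in triplicate. Selection involved annealing to a biotinylated primer, the partner subunit and triplets, incubation frozen at −7 °C, gel excision of extended constructs, capture on streptavidin beads and RT-PCR. Genotypes were retained after Illumina sequencing of inputs and outputs only with ≥10 input reads and ≥1 read in each output. Fitness is defined as the logarithm of a genotype's enrichment relative to wild-type enrichment, using inverse-variance-weighted averages across replicates, with the logarithm taken to base 2.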

Row | Variant | polymerase ribozyme fitness (log ratio)
1 | C49A U131C | -0.0361
2 | C49U G52U G61A G120A | -0.105
3 | C49G U125A | -0.51
4 | A50U C62U C80U A84G A95U | -6.37
5 | C49U C70G C102A A111C U116A G120C | -6.27
6 | A50U A84G A111C | -4.92
7 | C49G U106G U116C | -4.97
8 | A50U C94U | -0.732
9 | C49G G69A A100C C101U | -5.56
10 | A50G C88A C97G | -4.42
11 | A50G U87G | 0.406
12 | C49U U87A | -0.416
13 | A50G C99U | -3.27
14 | C49G C88U C94U | -0.799
15 | C49G U130A | -1.8
16 | C49U G69A | -3.63
17 | C49G C53A U59G C72U C86U U132A | -0.782
18 | C49U A84U C88A | -1.82
19 | A50C C56A | -0.326
20 | A50G C86A C115G | -2.42
21 | C49G C70U A84G U126G U129G G135C | -4.25
22 | C49G C88A G107U | -6.08
23 | A50U A84C U125A | -1.62
24 | A50G U129G | -0.967

Row | Variant | polymerase ribozyme fitness (log ratio)
25 | A50U C62U A91C | -3.88
26 | C49U C53U | -0.552
27 | A50G A91C | -1.05
28 | A50C C73A A74U | -1.27
29 | C49G U59G C62U G122A | -1.61
30 | A50U C80A G122A G127C U129C | -5.15
31 | C49U C62G | -4.14
32 | A50G G113U U131A | -4.11
33 | C49U G93A | -1.33
34 | C49A U106G | -2.41
35 | C49A U106A | -0.478
36 | A50G U55G C79G A91C U109A | -6.64
37 | C49U G110U | -2.6
38 | C49G G117C | -4.72
39 | C49G G117U | -2.86
40 | C49A U92G G117U C123U | -6.98
41 | C49U A50C A111G | 0.0314
42 | C49U U54G U59A C79U C101A G113U | -5.96
43 | A50G C70U G113C | -3.88
44 | C49U C53U C79A G120A G128A | -3.2
45 | A50G G60C | -1.81
46 | A50C A121G | 1.73
47 | C49G U55C A95C C98U | -3.54
48 | C49U G51U C62U C80A G113A | -4.27

Row | Variant | polymerase ribozyme fitness (log ratio)
49 | C49U C72A C79G C104A | -4.65
50 | C49U A95U C102A | -3.2
51 | A50C C62G | -2.66
52 | A50C C62A | -2.99
53 | C49U G117C | -3.03
54 | A50C C72A | 0.00514
55 | C49A U78A | -1.14
56 | C49A U78A G117C G128A U131C U133G | -6.98
57 | A50C G113U | -3.73
58 | C49A U87C | 0.179
59 | C49G A119G C123G | 1.72
60 | C49U G113A | -1.68
61 | C49U G128A | -2.63
62 | A50G G120A | 0.658
63 | C49G C80U | -3.42
64 | C49G C85A G113U | -4.81
65 | A50C G61U C114U A118G | -3.14
66 | A50U | -0.868
67 | A50G | 0.111
68 | A50C | -0.212
69 | C49U G58A U125A | -1.44
70 | C49U A90G | 0.52
71 | C49U U106G | -2.35
72 | C49G U109A U112A | -5.85

Row | Variant | polymerase ribozyme fitness (log ratio)
73 | C49G G60C C86U | -0.802
74 | A50U C56A C82G U87G G117A U132A | -4.26
75 | A50C G71U U130A | -0.942
76 | C49U G52U C56U G77U C101A | -2.69
77 | A50G C53U G61C A90G G113A | -1.82
78 | C49U U106A U116C | -1.79
79 | C49U G63C | -0.762
80 | A50U C56A G69C C80G C104G C115G C123U U130C | -8.59
81 | C49U C89U A105U | -4.2
82 | C49U C115A | -0.871
83 | C49U A75U C79U U116A U130C | -4.3
84 | C49G C62A U78C | -1.5
85 | C49U G69U G117U | -2.25
86 | A50U C99U | -5.15
87 | C49U C64A U81A G93U C114G C123U | -6.8
88 | C49U C53U C70U C79U | -4.07
89 | A50G C85A | -2.34
90 | A50C C94U | -0.435
91 | A50C C115A U132C | -0.367
92 | A50C G117C | -3.5
93 | C49A U55C C88G C94U C124U | 0.14
94 | C49G G135U | -1.27
95 | C49G C79A | -3.75
96 | C49A U112A G127C | -0.179

Row | Variant | polymerase ribozyme fitness (log ratio)
97 | A50G G117A | -1.18
98 | A50C G61U C79A | -2.63
99 | C49A U96C G120U | -0.575
100 | A50G C88G G120A C124U U126C | 0.11
101 | C49U A118U | -0.365
102 | C49U C104A | -2.12
103 | A50C U78G G110C G120A C124U | -4.98
104 | C49U U132A | -0.342
105 | A50C C73A U92G U112A G135A | -3.24
106 | A50C G63A U81A | -0.41
107 | C49G G51A U54G | -4.1
108 | C49U C76G | -0.454
109 | A50U C72U A74G | -1.22
110 | C49U C86U C97U G117C C124A | -4.42
111 | A50G C72G C79A U132C | -1.72
112 | C49G U81G | -3.01
113 | C49U U112A | 0.631
114 | A50C C56G A121U | 1.61
115 | C49U C101A | -1.69
116 | C49G G107A | -6.49
117 | C49G U92C | -1.53
118 | A50G U55C C88U G107C U112G C123G | -5.21
119 | C49G A83U | -0.66
120 | C49U U81C A95G C102G G110U G135U | -7.51

Row | Variant | polymerase ribozyme fitness (log ratio)
121 | A50C C76G C82A G120C | -0.0695
122 | C49U C56U C72G C101G | -3.7
123 | C49A U54A C56U U112C | 1.59
124 | C49G U129C | -0.4
125 | C49U G77U C123G | 0.718
126 | C49G C62G C114A G117C | -7.8
127 | C49G G63U | -2.09
128 | C49U A50G | -1.68
129 | C49G G71C A84U G110C | -6.35
130 | A50C G71A U133C | -0.939
131 | A50C G52U C94A G117A | -6.56
132 | C49U G77A A90U A91G C102A | -6.02
133 | C49U U96A | -3.17
134 | A50C C73A U78G A90G | -1.98
135 | C49G U109C | -4.72
136 | C49U G60C A103C U112A C123G | -4.76
137 | C49G A83G C124G | 1.03
138 | A50G U112C U116A | -0.435
139 | A50G C56A C82A U131C | -1.25
140 | A50C G63U G69U U81G G128C | -3.4
141 | C49U C53A C104U | -0.231
142 | A50U C101A | -2.09
143 | C49A G113A | -0.955
144 | C49U C104U C124A | 1.02

Row | Variant | polymerase ribozyme fitness (log ratio)
145 | A50C G110C | -4.96
146 | A50G C99U G110C | -7.74
147 | A50U C88A G110A | -3.66
148 | C49G C70A G110A A121C | -4.74
149 | C49U C73U | -0.609
150 | C49G C82G | -1.03
151 | C49U G107A G120C U130G | -6.54
152 | C49G G60U U78C C97A | -5.83
153 | A50G U55A G69A | -2.85
154 | A50C G63C C97U | -1.52
155 | A50U C64U | -0.813
156 | A50U C73A C76G U112A | -3.53
157 | A50G A74U A91C | -2.03
158 | C49G G128U | -2.74
159 | C49G G69C | -1.79
160 | C49U C72U | -0.879
161 | C49U A66G G120C C123G | -1.48
162 | C49U C72U C89G | -1.87
163 | C49G C89A | -2.67
164 | C49G G63C C80U U112A C124U | -5.99
165 | C49G G69U C115U | 0.956
166 | C49G C94G | -1.92
167 | C49U A50U C82U | -1.71
